Results published in paper PMC6222199, “Regulatory Targets of the Response Regulator RR_1586 from Clostridioides difficile Identified Using a Bacterial One-Hybrid Screen”.

Molecular target: RR_1586 D50G (Clostridioides difficile R20291, UniProt A0A9R0BKD1 1-223, D50G)
Test: EMSA; 10 mM Mg2+; phosphoramidate; EMSA: 5 pmol DNA in 10 ul (500 nM), 10 mM Tris pH 8, 50 mM NaCl, 10 mM MgCl2, room temperature 10 min; 10% PAGE 0.5x TBE on ice, ethidium bromide
Conditions: protein: recombinant; tags: His6; chain copies: 2; blunt

B1: CDR20291_1583 site (dsDNA)
DNA 1: AGGAATTAAGGAGCAATTAAATGATG
DNA 2: CATCATTTAATTGCTCCTTAATTCCT
- binding result: binds
